Laboratory results published in US20210198377A1 (XDCEXPLORER SHANGHAI, published 2021).
Read-outs that look alike come from different tables or passages of the source.

Key:
[1] = biological target: T1, human TPBG (full length, on cells) (human, UniProt Q13641 32-420); assay: FACS, HEK293 clone 293F-hTPBG 5A9
T1 sequence (looked up): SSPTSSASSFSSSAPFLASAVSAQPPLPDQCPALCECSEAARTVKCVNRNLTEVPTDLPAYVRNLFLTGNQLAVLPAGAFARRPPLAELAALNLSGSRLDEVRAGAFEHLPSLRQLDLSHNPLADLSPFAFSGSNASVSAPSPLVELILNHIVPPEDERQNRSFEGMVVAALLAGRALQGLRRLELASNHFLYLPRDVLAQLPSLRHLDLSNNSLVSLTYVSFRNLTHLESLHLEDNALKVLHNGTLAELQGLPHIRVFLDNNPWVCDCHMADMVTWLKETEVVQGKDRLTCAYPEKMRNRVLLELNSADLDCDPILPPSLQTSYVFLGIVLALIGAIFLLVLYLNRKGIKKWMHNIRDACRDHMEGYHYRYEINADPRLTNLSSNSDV

[2] = biological target: T1, human TPBG (full length, on cells); assay: FACS, HEK293 clone 293F-hTPBG 4G1
[3] = biological target: T1, human TPBG (full length, on cells); assay: FACS, HEK293 clone 293F-hTPBG 5E5
[4] = biological target: T1, human TPBG (full length, on cells); assay: FACS, HEK293 clone 293F-hTPBG 4A8
[5] = biological target: cynomolgus monkey TPBG (full length, on cells) (cynomolgus monkey) (UniProt Q4R8Y9); assay: FACS on CHO-k1-cTPBG 3F13G4 cells
[6] = biological target: T1, human TPBG (full length, on cells); assay: FACS, HEK293 clone 293F-hTPBG 4C3
[7] = biological target: T1, human TPBG (full length, on cells); assay: FACS, HEK293 cell strain 5E5E9 transfected with human TPBG
[8] = biological target: T1, human TPBG (full length, on cells); assay: FACS, HEK293 clone 293F-hTPBG 5G8
[9] = biological target: T1, human TPBG (full length, on cells); assay: FACS, HEK293 clone 293F-hTPBG 5D4
[10] = biological target: T1, human TPBG (full length, on cells); assay: FACS, HEK293 clone 293F-hTPBG 5C12
[11] = biological target: T1, human TPBG (full length, on cells); assay: FACS, HEK293 clone 293F-hTPBG 5E6
[12] = biological target: T1, human TPBG (full length, on cells); assay: FACS, HEK293 clone 293F-hTPBG 4H12
[13] = biological target: T1, human TPBG (full length, on cells); assay: FACS on CHO-k1-hTPBG 3A2F1 cells
[14] = biological target: T1, human TPBG (full length, on cells); assay: FACS, HEK293 clone 293F-hTPBG 4C5
[15] = biological target: T1, human TPBG (full length, on cells); assay: FACS, HEK293 clone 293F-hTPBG 4E1
[16] = biological target: T1, human TPBG (full length, on cells); assay: FACS, HEK293 clone 293F-hTPBG 5G11
[17] = biological target: T1, human TPBG (full length, on cells); assay: FACS, HEK293 clone 293F-hTPBG 4B9
[18] = biological target: T1, human TPBG (full length, on cells); assay: FACS, HEK293 clone 293F-hTPBG 4E1 (NO. 8)
[19] = biological target: T1, human TPBG (full length, on cells); assay: FACS, HEK293 clone 293F-hTPBG 4G6
[20] = biological target: T1, human TPBG (full length, on cells); assay: FACS, HEK293 clone 293F-hTPBG 5H6
[21] = biological target: T1, human TPBG (full length, on cells); assay: FACS, HEK293 clone 293F-hTPBG 4F9
[22] = biological target: T2, mouse TPBG (full length, on cells) (mouse, UniProt Q9Z0L0 32-426); assay: FACS on CHO-k1-mTPBG 3A3 cells
T2 construct: whole, on cells; On transfected CHO-K1 cells; also called mTPBG; CHO-K1-mTPBG
T2 sequence (looked up): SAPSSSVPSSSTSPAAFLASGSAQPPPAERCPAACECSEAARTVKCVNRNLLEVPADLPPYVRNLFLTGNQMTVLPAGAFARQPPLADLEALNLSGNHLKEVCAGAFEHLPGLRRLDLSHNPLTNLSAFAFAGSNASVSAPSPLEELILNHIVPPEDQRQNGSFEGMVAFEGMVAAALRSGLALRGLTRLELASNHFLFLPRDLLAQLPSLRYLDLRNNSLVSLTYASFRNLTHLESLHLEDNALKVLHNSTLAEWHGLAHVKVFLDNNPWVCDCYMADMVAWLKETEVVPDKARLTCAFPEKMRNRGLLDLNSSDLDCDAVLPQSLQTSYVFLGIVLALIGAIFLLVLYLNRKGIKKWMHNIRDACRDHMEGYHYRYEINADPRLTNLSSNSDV

[23] = biological target: T1, human TPBG (full length, on cells); assay: FACS, HEK293 clone 293F-hTPBG 4A9
[24] = biological target: T1, human TPBG (full length, on cells); assay: FACS, HEK293 clone 293F-hTPBG 5A11
human TPBG-hFc [25] = biological target: T3, human TPBG-hFc (human, UniProt Q13641 32-355); assay: ELISA, coated human TPBG-hFc 1.0 ug/mL; control IgG 0.02 nM
T3 construct: also called immunogen A; hFc tagged TPBG protein; not shown: The human IgG Fc fragment of the pCpC vector (Invitrogen V044-50) and any linker to it
T3 sequence: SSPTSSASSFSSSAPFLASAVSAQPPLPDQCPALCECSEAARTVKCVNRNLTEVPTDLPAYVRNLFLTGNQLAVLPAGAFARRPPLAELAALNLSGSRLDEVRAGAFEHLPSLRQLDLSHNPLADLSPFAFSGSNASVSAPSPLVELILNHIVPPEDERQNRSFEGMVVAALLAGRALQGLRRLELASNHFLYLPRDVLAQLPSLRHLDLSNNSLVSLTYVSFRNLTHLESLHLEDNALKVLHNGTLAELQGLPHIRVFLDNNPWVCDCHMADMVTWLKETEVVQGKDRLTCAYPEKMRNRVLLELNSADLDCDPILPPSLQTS

human TPBG-hFc [26] = biological target: T3, human TPBG-hFc; assay: ELISA, coated human TPBG-hFc 1.0 ug/mL; control IgG 0.2 nM
human TPBG-hFc [27] = biological target: T3, human TPBG-hFc; assay: ELISA, coated human TPBG-hFc 1.0 ug/mL; control IgG 0.002 nM
human TPBG-hFc [28] = biological target: T3, human TPBG-hFc; assay: ELISA, coated human TPBG-hFc 1.0 ug/mL; control IgG 0.0002 nM
human TPBG-hFc [29] = biological target: T3, human TPBG-hFc; assay: ELISA, coated human TPBG-hFc 1.0 ug/mL; control IgG 20 nM
human TPBG-hFc [30] = biological target: T3, human TPBG-hFc; assay: ELISA, coated human TPBG-hFc 1.0 ug/mL; control IgG 200 nM
human TPBG-hFc [31] = biological target: T3, human TPBG-hFc; assay: ELISA, coated human TPBG-hFc 1.0 ug/mL; control IgG 2 nM
[32] = biological target: T1, human TPBG (full length, on cells); assay: cell-based or functional assay
[33] = biological target: T1, human TPBG (full length, on cells); assay: cell-based or functional assay; remark: listed apart in the source
[34] = biological target: T1, human TPBG (full length, on cells); assay: cell-based or functional assay; remark: listed apart in the source
[35] = biological target: T1, human TPBG (full length, on cells); assay: cell-based or functional assay; remark: listed apart in the source

Molecule | MFI [1] [MFI] | MFI [2] [MFI] | MFI [3] [MFI] | MFI [4] [MFI] | MFI [5] [MFI] | MFI [6] [MFI] | MFI [8] [MFI] | MFI [9] [MFI] | MFI [10] [MFI] | MFI [11] [MFI] | MFI [12] [MFI] | MFI [13] [MFI] | MFI [14] [MFI] | MFI [15] [MFI] | MFI [16] [MFI] | MFI [17] [MFI] | MFI [18] [MFI] | MFI [19] [MFI] | MFI [20] [MFI] | MFI [21] [MFI] | other results
commercial available TPBG antibody (purchased from Sigma, Lot NO: SAB1404485) | 53.2 | 131 | 280 | 33.4 | 198 | 27.2 | 168 | 70.6 | 75.4 | 13.2 | 9.5 | 798 | 172 | 145 | 11.3 | 126 | 91.8 | 31.8 | 36.4 | 47.7 | MFI [7]: 216 MFI; percentage of TPBG-positive cells [7]: 98.5%; MFI [22]: 135 MFI; MFI [23]: 204 MFI; MFI [24]: 166 MFI
mouse IgG control (antibody) | 5 | 4 | 5.6 | 3.1 | 2.66 | 3.2 | 6 | 3 | 3.7 | 2.6 | 4 | 3.24 | 5.6 | 5.2 | 4.1 | 6.3 | 4.8 | 3.1 | 3 | 3.9 | OD450nm (human TPBG-hFc [25]): 0.1 OD450nm; OD450nm (human TPBG-hFc [26]): 0.11 OD450nm; OD450nm (human TPBG-hFc [27]): 0.1 OD450nm; OD450nm (human TPBG-hFc [28]): 0.11 OD450nm; OD450nm (human TPBG-hFc [29]): 0.11 OD450nm; OD450nm (human TPBG-hFc [30]): 0.24 OD450nm; MFI [22]: 2.38 MFI; MFI [23]: 6.3 MFI; MFI [24]: 4.6 MFI; OD450nm (human TPBG-hFc [31]): 0.1 OD450nm
Control hIgG-MMAF (antibody) |  |  |  |  |  |  |  |  |  |  |  |  |  |  |  |  |  |  |  |  | IC50 of cytotoxicity on TPBG-positive NCI-H1299 cells (CellTiter-Glo) [32]: > 100 nM
Chimeric Antibody 12B12-MMAF (antibody, human IgG1, DAR 3, V domains shown, MC-MMAF on cysteines after TCEP reduction, sites not stated) VH: DVQLVESGGGLVQPGGSRKLSCAASGFTFSNFGMHWVRQAPEKGLEWVAYISSGSTSFYYADTVKGRFTISRDNPKNTLFLQMTSLRSEDTAMYYCSRTNSLLRGFFDAWGAGTTVTVSS VL: DIVLTQSPASLAVSLGQRATISCRASQSVSSSSYTYLHWYQQKPGQPPKLLIKSASNLESGVPARFSGTGSGTDFTLNIHPVEEEDTATYYCQHSWEIPLTFGAGTKLELK |  |  |  |  |  |  |  |  |  |  |  |  |  |  |  |  |  |  |  |  | IC50 of cytotoxicity on recombinant 293-hTPBG cells (CellTiter-Glo) [33]: 0.001 nM; IC50 of cytotoxicity on TPBG-positive NCI-H1299 cells (CellTiter-Glo) [34]: 0.04 nM; IC50 of cytotoxicity on TPBG-positive NCI-H1568 cells (CellTiter-Glo) [34]: 0.025 nM; IC50 of cytotoxicity on TPBG-positive NCI-H1299 cells (CellTiter-Glo) [35]: 0.13 nM
Chimeric Antibody 28D4-MMAF (antibody, human IgG1, DAR 3, V domains shown, MC-MMAF on cysteines after TCEP reduction, sites not stated) VH: DVQLVESGGGLVRPGGSLKLSCAASGFTFSNYVMSWARQSPEKRLEWVAEISTGGSHTYYSDTVTGRFTISRDNAKKALYLEMSSLRSEDTAIYYCIMFYYGSSYSMDYWGQGTSVTVSS VL: DIQMTQSTSSLSASLGDRITISCRASQDIRNYLNWYQQKPDGTVKLLIYHTSRLHSGVPSRFSGSGSGTDYSLTISNLEQEDIATYFCQQGDTLPLTFGAGTRLELK |  |  |  |  |  |  |  |  |  |  |  |  |  |  |  |  |  |  |  |  | IC50 of cytotoxicity on recombinant 293-hTPBG cells (CellTiter-Glo) [33]: 0.024 nM; IC50 of cytotoxicity on TPBG-positive NCI-H1299 cells (CellTiter-Glo) [34]: 0.132 nM; IC50 of cytotoxicity on TPBG-positive NCI-H1568 cells (CellTiter-Glo) [34]: 0.066 nM; IC50 of cytotoxicity on TPBG-positive NCI-H1299 cells (CellTiter-Glo) [35]: 0.21 nM
